Laboratory results from patent US6653444 (Dana-Farber, dated 2003).

Molecular target: CD28 (human, UniProt P10747 19-220)
Test: cell-based or functional assay

Chain of CD28 (P10747 19-220): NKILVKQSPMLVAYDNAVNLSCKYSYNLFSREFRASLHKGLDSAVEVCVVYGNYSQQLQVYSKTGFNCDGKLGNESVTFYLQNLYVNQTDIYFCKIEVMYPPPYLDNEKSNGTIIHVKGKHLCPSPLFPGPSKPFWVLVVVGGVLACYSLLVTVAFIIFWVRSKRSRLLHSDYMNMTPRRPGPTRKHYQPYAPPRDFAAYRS

| fold enhancement of proliferation of PMA-treated human CD28+ T cells by fixed COS-mB7 cells [fold] | IL-2 secretion with CHO-B7 relative to anti-CD28 mAb, PMA-stimulated CD28+ T cells [%] | fold enhancement of proliferation of PMA-treated human CD28+ T cells by fixed COS-hB7 cells [fold] | fold increase in proliferation of PMA-treated human CD28+ T cells by fixed CHO-hB7 cells [fold] | proliferation by CHO-B7 relative to anti-CD28 mAb [% less] | Binder |
| --- | --- | --- | --- | --- | --- |
| 29 |  |  |  |  | murine B7 (ligand) VDEQLSKSVKDKVLLPCRYNSPHEDESEDRIYWQKHDKVVLSVIAGKLKVWPEYKNRTLYDNTTYSLIILGLVLSDRGTYSCVVQKKERGTYGVKHLALVKLSIKADFSTPNITESGNPSADTKRITCFASGGFPKPRFSWLENGRELPGINTTISQDPESELYTISSQLDFNTTRNHTIKCLIKYGDAHVSEDFTWEKPPEDPPDSKNTLVLFGAGFGAVITVVVIVVIIKCFCKHRSCFRRNEASRETNNSLTFGPEEALAEQTVFL |
|  | ~45 | 30 | 51 | ~28 | human B7 B cell activation antigen (ligand) VIHVTKEVKEVATLSCGHNVSVEELAQTRIYWQKEKKMVLTMMSGDMNIWPEYKNRTIFDITNNLSIVILALRPSDEGTYECVVLKYEKDAFKREHLAEVTLSVKADFPTPSISDFEIPTSNIRRIICSTSGGFPEPHLSWLENGEELNAINTTVSQDPETELYAVSSKLDFNMTTNHSFMCLIKYGHLRVNQTFNWNTTKQEHFPDNLLPSWAITLISVNGIFVICCLTYCFAPRCRERRRNERLRRESVRPV |
